Square brackets hold non-standard residues; d marks the D form. Ends that are not written are not given here. Nle = CCCC[C@H](N)C(=O)O
B1: metallopeptide 4-2 (peptide)
peptide: YV[Nle]GHFRWDRCF-NH2
modifications: also: oxorhenium(V) N3S1 chelate: C11 SG + backbone N of D9, R10, C11, bridge at 11 via Re(V)=O, other end not in the chain
B2: metallopeptide 4-3 (peptide)
peptide: YV[Nle]GHFRWDCRF-NH2
modifications: also: oxorhenium(V) N3S1 chelate: C10 SG + backbone N of W8, D9, C10, bridge at 10 via Re(V)=O, other end not in the chain
B3: metallopeptide 4-4 (peptide)
peptide: YV[Nle]GHFRWCDRF-NH2
modifications: also: oxorhenium(V) N3S1 chelate: C9 SG + backbone N of R7, W8, C9, bridge at 9 via Re(V)=O, other end not in the chain
B4: metallopeptide 4-5 (peptide)
peptide: YV[Nle]GHFRCWDRF-NH2
modifications: also: oxorhenium(V) N3S1 chelate: C8 SG + backbone N of F6, R7, C8, bridge at 8 via Re(V)=O, other end not in the chain
B5: metallopeptide 4-8 (peptide)
peptide: YV[Nle]GCHFRWDRF-NH2
modifications: also: oxorhenium(V) N3S1 chelate: C5 SG + backbone N of X3, G4, C5, bridge at 5 via Re(V)=O, other end not in the chain
B6: metallopeptide 4-10 (peptide)
peptide: YVC[Nle]GHFRWDRF-NH2
modifications: bridge (positions not given here); not fully specified (bridges); printed as Tyr-Val-Cys-Nle-Gly-His-Phe-Arg-Trp-Asp-Arg-Phe-NH2.; also: oxorhenium(V) N3S1 complex
B7: metallopeptide 2-1 (peptide)
peptide: SYSXEHFRWGKGVC
modifications: N-terminal acetyl; Nle 4 (X in letters); D-Cys 14; C-terminal amide; Re complexed at D-Cys 14
B8: metallopeptide 4-7 (peptide)
peptide: YV[Nle]GHCFRWDRF-NH2
modifications: also: oxorhenium(V) N3S1 chelate: C6 SG + backbone N of G4, H5, C6, bridge at 6 via Re(V)=O, other end not in the chain
B9: metallopeptide 4-9 (peptide)
peptide: YV[Nle]CGHFRWDRF-NH2
modifications: also: oxorhenium(V) N3S1 chelate: C4 SG + backbone N of V2, X3, C4, bridge at 4 via Re(V)=O, other end not in the chain
B10: metallopeptide 4-6 (peptide)
peptide: YV[Nle]GHFCRWDRF-NH2
modifications: also: oxorhenium(V) N3S1 chelate: C7 SG + backbone N of H5, F6, C7, bridge at 7 via Re(V)=O, other end not in the chain

target: T1, melanocortin-1 receptor (MC1-R) of B-16 mouse melanoma cells (mouse, UniProt Q01727 1-315); experiment: 125I-NDP-α-MSH competition, B-16 membranes
T1 construct: whole, on cells; membranes prepared from the cells were used; also called Melanocortin Receptor 1
Protocol: (§1) The competitive inhibition binding assay was conducted using membranes prepared from hMC3-R, hMC4-R, hMC5-R, and B-16 mouse melanoma cells (containing MC1-R) using 0.4 nM ¹²⁵I-NDP-alpha-MSH (New England Nuclear, Boston, Mass., USA) in 50 mM HEPES buffer containing 1 mM MgCl₂, 2 mM CaCl₂, and 5 mM KCl, at pH 7.2. […] Incubation was for 90 minutes at room temperature, after which the assay mixture was filtered and the membranes washed three times with ice cold buffer. The filter was dried and counted in a gamma counter for remaining radioactivity bound to the membranes. 100% specific binding was defined as the difference in radioactivity (cpm) bound to cell membranes in the absence and presence of 1 μM α-MSH. […] Each assay was conducted in triplicate and the actual mean valves are described.
(§2) The methods and assays set forth in Example 1 were followed.

T1 sequence (Q01727 whole entry): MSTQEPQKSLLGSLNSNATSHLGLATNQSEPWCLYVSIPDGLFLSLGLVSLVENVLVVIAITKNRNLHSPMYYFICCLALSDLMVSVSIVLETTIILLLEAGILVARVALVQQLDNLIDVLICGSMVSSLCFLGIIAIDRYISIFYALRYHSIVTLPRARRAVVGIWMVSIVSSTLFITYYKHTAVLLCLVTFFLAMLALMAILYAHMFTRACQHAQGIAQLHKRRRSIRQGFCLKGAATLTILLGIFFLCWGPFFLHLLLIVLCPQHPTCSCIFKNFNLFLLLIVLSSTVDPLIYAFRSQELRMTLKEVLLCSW

% Inhibition at 1 µM [%]	Binder
69	Ac-SYS[Nle]EH[dC]FRWGKPV-NH2 (also: oxorhenium(V) N3S1 chelate at D-Cys 7) [metallopeptide 2-8]
92	Ac-SYS[Nle]E[dC]HFRWGKPV-NH2 (also: oxorhenium(V) N3S1 chelate at D-Cys 6) [metallopeptide 2-9]
65	Ac-SYS[Nle][dC]EHFRWGKPV-NH2 (also: oxorhenium(V) N3S1 chelate at D-Cys5) [metallopeptide 2-10]
95	Ac-SYS[dC][Nle]EHFRWGKPV-NH2 (also: oxorhenium(V) N3S1 chelate at D-Cys4) [metallopeptide 2-11]
97	Ac-SY[dC]S[Nle]EHFRWGKPV-NH2 (also: oxorhenium(V) N3S1 chelate at D-Cys3) [metallopeptide 2-12]
83	YVXGHFRWDRF (Nle 3; C-terminal amide, not complexed to Re) [[Nle3]-γ-MSH parent polypeptide Tyr-Val-Nle-Gly-His-Phe-Arg-Trp-Asp-Arg-Phe-NH2]
56	YVXGHFRWDRFC (not fully specified; Nle 3; C-terminal amide; Re complexed at Cys 12) [metallopeptide 4-1]
75	B1
44	B2
52	B3
89	B4
13	B5
28	B6
97	B7
93	Ac-SYS[Nle]EHFRWGKG[dC]V-NH2 (also: oxorhenium(V) N3S1 chelate at D-Cys13) [metallopeptide 2-2]
91	Ac-SYS[Nle]EHFRWGK[dC]PV-NH2 (also: oxorhenium(V) N3S1 chelate at D-Cys12) [metallopeptide 2-3]
91	Ac-SYS[Nle]EHFRWG[dC]KPV-NH2 (also: oxorhenium(V) N3S1 chelate at D-Cys11) [metallopeptide 2-4]
43	Ac-SYS[Nle]EHFRW[dC]GKPV-NH2 (also: oxorhenium(V) N3S1 chelate at D-Cys10) [metallopeptide 2-5]

target: T2, human melanocortin-3 receptor (hMC3-R) (human, UniProt P41968 1-323); experiment: 125I-NDP-α-MSH competition, hMC3-R membranes
T2 construct: whole, on cells; membranes prepared from hMC3-R cells were used; also called Melanocortin Receptor 3
Protocol: as §1, §2

T2 sequence (P41968 whole entry): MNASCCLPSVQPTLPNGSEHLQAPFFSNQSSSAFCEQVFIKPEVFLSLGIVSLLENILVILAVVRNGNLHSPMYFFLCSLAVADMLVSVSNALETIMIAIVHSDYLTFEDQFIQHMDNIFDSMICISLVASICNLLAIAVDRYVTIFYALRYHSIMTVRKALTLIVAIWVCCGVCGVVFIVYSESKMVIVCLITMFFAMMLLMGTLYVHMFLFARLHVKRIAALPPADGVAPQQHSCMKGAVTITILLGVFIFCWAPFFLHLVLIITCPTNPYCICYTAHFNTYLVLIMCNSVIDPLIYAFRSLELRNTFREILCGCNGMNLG

% Inhibition at 1 µM [%]	Binder
0	Ac-SYS[Nle]EH[dC]FRWGKPV-NH2 (also: oxorhenium(V) N3S1 chelate at D-Cys 7) [metallopeptide 2-8]
13	Ac-SYS[Nle]E[dC]HFRWGKPV-NH2 (also: oxorhenium(V) N3S1 chelate at D-Cys 6) [metallopeptide 2-9]
0	Ac-SYS[Nle][dC]EHFRWGKPV-NH2 (also: oxorhenium(V) N3S1 chelate at D-Cys5) [metallopeptide 2-10]
21	Ac-SY[dC]S[Nle]EHFRWGKPV-NH2 (also: oxorhenium(V) N3S1 chelate at D-Cys3) [metallopeptide 2-12]
85	YVXGHFRWDRF (Nle 3; C-terminal amide, not complexed to Re) [[Nle3]-γ-MSH parent polypeptide Tyr-Val-Nle-Gly-His-Phe-Arg-Trp-Asp-Arg-Phe-NH2]
69	YVXGHFRWDRFC (not fully specified; Nle 3; C-terminal amide; Re complexed at Cys 12) [metallopeptide 4-1]
49	B1
18	B2
20	B3
87	B4
17	B8
33	B5
19	B9
10	B6
72	B7
26	Ac-SYS[Nle]EHFRWGKG[dC]V-NH2 (also: oxorhenium(V) N3S1 chelate at D-Cys13) [metallopeptide 2-2]
41	Ac-SYS[Nle]EHFRWGK[dC]PV-NH2 (also: oxorhenium(V) N3S1 chelate at D-Cys12) [metallopeptide 2-3]
27	Ac-SYS[Nle]EHFRWG[dC]KPV-NH2 (also: oxorhenium(V) N3S1 chelate at D-Cys11) [metallopeptide 2-4]
0	Ac-SYS[Nle]EHFRW[dC]GKPV-NH2 (also: oxorhenium(V) N3S1 chelate at D-Cys10) [metallopeptide 2-5]

target: T3, human melanocortin-4 receptor (hMC4-R) (human, UniProt P32245 1-332); experiment: 125I-NDP-α-MSH competition, hMC4-R membranes
T3 construct: whole, on cells; membranes prepared from hMC4-R cells were used; also called Melanocortin Receptor 4
Protocol: as §1, §2

T3 sequence (P32245 whole entry): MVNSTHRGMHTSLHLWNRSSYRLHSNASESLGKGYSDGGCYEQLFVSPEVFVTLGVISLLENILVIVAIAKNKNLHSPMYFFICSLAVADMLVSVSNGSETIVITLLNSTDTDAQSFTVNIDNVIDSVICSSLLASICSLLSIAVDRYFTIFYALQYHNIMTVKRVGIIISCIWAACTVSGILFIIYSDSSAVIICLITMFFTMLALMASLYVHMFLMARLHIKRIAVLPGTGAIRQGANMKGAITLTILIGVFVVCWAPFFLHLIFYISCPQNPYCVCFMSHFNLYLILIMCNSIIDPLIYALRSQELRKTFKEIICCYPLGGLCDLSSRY

% Inhibition at 1 µM [%]	Binder
25	Ac-SYS[Nle]EH[dC]FRWGKPV-NH2 (also: oxorhenium(V) N3S1 chelate at D-Cys 7) [metallopeptide 2-8]
35	Ac-SYS[Nle]E[dC]HFRWGKPV-NH2 (also: oxorhenium(V) N3S1 chelate at D-Cys 6) [metallopeptide 2-9]
18	Ac-SYS[Nle][dC]EHFRWGKPV-NH2 (also: oxorhenium(V) N3S1 chelate at D-Cys5) [metallopeptide 2-10]
37	Ac-SYS[dC][Nle]EHFRWGKPV-NH2 (also: oxorhenium(V) N3S1 chelate at D-Cys4) [metallopeptide 2-11]
47	Ac-SY[dC]S[Nle]EHFRWGKPV-NH2 (also: oxorhenium(V) N3S1 chelate at D-Cys3) [metallopeptide 2-12]
58	YVXGHFRWDRF (Nle 3; C-terminal amide, not complexed to Re) [[Nle3]-γ-MSH parent polypeptide Tyr-Val-Nle-Gly-His-Phe-Arg-Trp-Asp-Arg-Phe-NH2]
36	YVXGHFRWDRFC (not fully specified; Nle 3; C-terminal amide; Re complexed at Cys 12) [metallopeptide 4-1]
23	B1
23	B2
39	B3
74	B4
46	B7
28	Ac-SYS[Nle]EHFRWGKG[dC]V-NH2 (also: oxorhenium(V) N3S1 chelate at D-Cys13) [metallopeptide 2-2]
25	Ac-SYS[Nle]EHFRWGK[dC]PV-NH2 (also: oxorhenium(V) N3S1 chelate at D-Cys12) [metallopeptide 2-3]
40	Ac-SYS[Nle]EHFRWG[dC]KPV-NH2 (also: oxorhenium(V) N3S1 chelate at D-Cys11) [metallopeptide 2-4]
4	Ac-SYS[Nle]EHFRW[dC]GKPV-NH2 (also: oxorhenium(V) N3S1 chelate at D-Cys10) [metallopeptide 2-5]

target: T4, human melanocortin-5 receptor (hMC5-R) (human, UniProt P33032 1-325); experiment: 125I-NDP-α-MSH competition, hMC5-R membranes
T4 construct: whole, on cells; membranes prepared from hMC5-R cells were used; also called Melanocortin Receptor 5
Protocol: as §1, §2

T4 sequence (P33032 whole entry): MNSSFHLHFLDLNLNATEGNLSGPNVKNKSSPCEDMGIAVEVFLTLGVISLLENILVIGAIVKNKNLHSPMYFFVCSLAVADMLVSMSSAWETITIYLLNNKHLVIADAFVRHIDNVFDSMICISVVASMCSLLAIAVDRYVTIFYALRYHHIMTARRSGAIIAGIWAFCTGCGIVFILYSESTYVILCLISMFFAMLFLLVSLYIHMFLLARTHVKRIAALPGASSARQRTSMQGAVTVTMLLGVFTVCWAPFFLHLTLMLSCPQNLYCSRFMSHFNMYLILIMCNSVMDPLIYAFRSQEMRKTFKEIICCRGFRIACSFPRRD

% Inhibition at 1 µM [%]	Binder
29	Ac-SYS[Nle]EH[dC]FRWGKPV-NH2 (also: oxorhenium(V) N3S1 chelate at D-Cys 7) [metallopeptide 2-8]
2	Ac-SYS[Nle]E[dC]HFRWGKPV-NH2 (also: oxorhenium(V) N3S1 chelate at D-Cys 6) [metallopeptide 2-9]
0	Ac-SYS[Nle][dC]EHFRWGKPV-NH2 (also: oxorhenium(V) N3S1 chelate at D-Cys5) [metallopeptide 2-10]
0	Ac-SYS[dC][Nle]EHFRWGKPV-NH2 (also: oxorhenium(V) N3S1 chelate at D-Cys4) [metallopeptide 2-11]
17	Ac-SY[dC]S[Nle]EHFRWGKPV-NH2 (also: oxorhenium(V) N3S1 chelate at D-Cys3) [metallopeptide 2-12]
43	YVXGHFRWDRF (Nle 3; C-terminal amide, not complexed to Re) [[Nle3]-γ-MSH parent polypeptide Tyr-Val-Nle-Gly-His-Phe-Arg-Trp-Asp-Arg-Phe-NH2]
41	YVXGHFRWDRFC (not fully specified; Nle 3; C-terminal amide; Re complexed at Cys 12) [metallopeptide 4-1]
51	B1
65	B2
47	B3
68	B4
24	B10
15	B8
45	B5
43	B9
17	B6
53	B7
32	Ac-SYS[Nle]EHFRWGKG[dC]V-NH2 (also: oxorhenium(V) N3S1 chelate at D-Cys13) [metallopeptide 2-2]
38	Ac-SYS[Nle]EHFRWGK[dC]PV-NH2 (also: oxorhenium(V) N3S1 chelate at D-Cys12) [metallopeptide 2-3]
21	Ac-SYS[Nle]EHFRWG[dC]KPV-NH2 (also: oxorhenium(V) N3S1 chelate at D-Cys11) [metallopeptide 2-4]
0	Ac-SYS[Nle]EHFRW[dC]GKPV-NH2 (also: oxorhenium(V) N3S1 chelate at D-Cys10) [metallopeptide 2-5]

From patent US20050282739A1 (PALATIN TECHNOLOGIES, published 2005)
